Legend:
[1] = biological target: IGF-IR exprimé sur des cellules d'insectes Sf9 (baculovirus) (UniProt P08069); assay: FACScan on Sf9 insect cells expressing IGF-IR (baculovirus), anti-mouse FITC secondary; Tableau 1, column Cellules IGF1R +
[2] = biological target: récepteur à l'insuline IR exprimé sur des cellules d'insectes Sf9 (baculovirus) (UniProt P06213); assay: FACScan on Sf9 insect cells expressing IR (baculovirus), anti-mouse FITC secondary; Tableau 1, column Cellules IR +
[3] = biological target: récepteur à l'insuline IR exprimé sur des cellules d'insectes Sf9 (baculovirus) (UniProt P06213); assay: FACScan on Sf9 insect cells expressing IR (baculovirus), secondary antibody alone; Tableau 1, column Cellules IR +
[4] = biological target: IGF-IR exprimé sur des cellules d'insectes Sf9 (baculovirus) (UniProt P08069); assay: FACScan on Sf9 insect cells expressing IGF-IR (baculovirus), secondary antibody alone; Tableau 1, column Cellules IGF1R +

MFI (Moyenne de l'intensité de fluorescence) [1] | MFI (Moyenne de l'intensité de fluorescence) [2] | MFI (Moyenne de l'intensité de fluorescence) [3] | MFI (Moyenne de l'intensité de fluorescence) [4] | Substance
35 | 32 |  |  | AcM commercial αIR3 (anti-IGF-IR) (antibody)
 |  | 13 | 9 | Anti-souris FITC (antibody)

Source: EP1798242B1
